Among the data in paper PMC9859758 are stoichiometry N values, retold here.

Experiment [1] has as its target His-tagged Naumovozyma castellii Kar9 N-terminal domain (NcKar9N, residues 1-410), wild type (Naumovozyma castellii). The experiment can be described thus: SEC-MALS; 20 mM Tris-HCl pH 7.5, 150 mM NaCl, 1 mM dithiothreitol; S-200 10/300 column; 30 μl of 200 μM protein injected.
The target of experiment [2] is His-tagged NcKar9N-β^− (Arg233Ala/Ile237Ala) (Naumovozyma castellii). The experiment can be described thus: SEC-MALS; 20 mM Tris-HCl pH 7.5, 50 mM NaCl, 1 mM dithiothreitol; S-200 10/300 column; 30 μl of 200 μM protein injected.
For experiment [3] the target is unchanged. In words: SEC-MALS; 20 mM Tris-HCl pH 7.5, 150 mM NaCl, 1 mM dithiothreitol; S-200 10/300 column; 30 μl of 200 μM protein injected.
Experiment [4] concerns the target His-tagged NcKar9N-γ^− (Tyr363Ala/Arg364Ala) (Naumovozyma castellii). In words: SEC-MALS; 20 mM Tris-HCl pH 7.5, 50 mM NaCl, 1 mM dithiothreitol; S-200 10/300 column; 30 μl of 200 μM protein injected.

On to “His-tagged Naumovozyma castellii Kar9 N-terminal domain (NcKar9N, residues 1-410), wild type (domain or fragment)”, for which the stoichiometry N in experiment [1] is 2. For “His-tagged NcKar9N-β^− (Arg233Ala/Ile237Ala) (domain or fragment)”, the stoichiometry N in experiment [2] and in experiment [3] was 2 throughout. Substance “His-tagged NcKar9N-γ^− (Tyr363Ala/Arg364Ala) (domain or fragment)” had a stoichiometry N in experiment [4] of under 4.
